The results in this text go back to patent US20210070876A1 (LES LABORATOIRES SERVIER, published 2021).

Experiment [1] has as its target T1, His-tagged cynomolgus CD73 ECD (cynomolgus monkey (Macaca fascicularis)).
T1 chain: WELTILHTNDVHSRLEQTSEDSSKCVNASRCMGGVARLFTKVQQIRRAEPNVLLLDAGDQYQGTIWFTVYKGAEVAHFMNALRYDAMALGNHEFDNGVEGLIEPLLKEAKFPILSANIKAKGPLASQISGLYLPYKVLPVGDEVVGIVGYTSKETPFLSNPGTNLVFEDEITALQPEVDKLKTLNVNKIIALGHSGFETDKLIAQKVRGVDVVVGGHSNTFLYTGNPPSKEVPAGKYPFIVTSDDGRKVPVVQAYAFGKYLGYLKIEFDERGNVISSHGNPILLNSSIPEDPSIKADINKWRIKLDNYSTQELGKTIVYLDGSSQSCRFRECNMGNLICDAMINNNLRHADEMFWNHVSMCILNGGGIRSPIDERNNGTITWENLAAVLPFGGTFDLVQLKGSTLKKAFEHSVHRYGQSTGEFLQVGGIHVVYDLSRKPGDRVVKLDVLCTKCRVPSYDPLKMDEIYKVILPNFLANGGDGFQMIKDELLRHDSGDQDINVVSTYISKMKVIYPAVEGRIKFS
The experiment is described as follows: SPR, mAb captured, His-tagged CD73 ECD injected. Here is the method: Kinetic binding analysis of anti-CD73 mAbs and Fab fragments was performed by Surface Plasmon Resonance (SPR), using a Continuous Flow Microspotter (CFM, Wasatch Microfluidics, Salt Lake City, US) combined with an IBIS MX96 SPR instrument (IBIS Technologies, The Netherlands). CD73 cDNAs coding for the extracellular domains of human and cynomolgus CD73 were synthesized and each cloned into a vector containing a CMV promoter and either a C-terminal 6× histidine sequence (SEQ ID NO: 45) for His-tagged CD73 ECD, or a human IgG1 Fc sequence (AA P101-K330), resulting in fusion of IgG1 Fc C-terminally to the cloned CD73 ECD. The His-tagged and Fc-fusion constructs were transiently expressed using an ExpiCHO™ expression system and purified either by standard Ni-NTA chromatography or standard MabSelect™ SuRe™ procedures, respectively. Anti-CD73 Fab fragments were generated by digesting full-length IgG1 antibodies with GingisKHAN enzyme, using a kit provided by Genovis (Sweden). Affinities of Fab fragments were measured by capturing Fc-tagged antigens on a G-a-hu-IgG Fc SensEye® for 15 minutes using the CFM. After spotting, the SensEye® was positioned in the IBIS MX96 biosensor and immobilized antigens were fixed by SensEye FixIt kit. Kinetic analysis was performed by injecting monomeric Fab fragments at increasing concentrations from 0.8 nM to 300 nM. After each cycle of Fab fragment injection, the surface was regenerated by 10 mM glycine pH 3, 10% glycerol. Fab association was performed for 15 minutes and antigen dissociation was performed for 15 minutes. Affinities of full-length monoclonal antibodies (mAbs) were measured by capturing mAbs on a G-a-hu-IgG Fc SensEye® (Ssens BV, The Netherlands) for 15 minutes using a Continuous Flow Microspotter (CFM, Wasatch Microfluidics, Salt Lake City, US). After spotting, the SensEye was docked in the IBIS MX96 and spotted mAbs were fixed by SensEye FixIt kit (Ssens BV, The Netherlands). Kinetic analysis was performed by applying a kinetic titration series injecting increasing concentrations of His-tagged antigens from 0.16 nM to 10 nM as 2-fold dilutions. The surface was regenerated before the next cycle of cynomolgus antigen injections by 100 mM H₃PO₄, pH 3. MAb association was performed for 15 minutes and antigen dissociation was performed for 45 minutes.
(SPR reads the build-up and loss of mass on a sensor chip optically.)

Experiment [2] concerns the target T2, human CD73 expressed on cells (human, UniProt P21589 27-549).
T2 construct: also called 5'-NT; human CD73 on CHO-S cells
T2 sequence: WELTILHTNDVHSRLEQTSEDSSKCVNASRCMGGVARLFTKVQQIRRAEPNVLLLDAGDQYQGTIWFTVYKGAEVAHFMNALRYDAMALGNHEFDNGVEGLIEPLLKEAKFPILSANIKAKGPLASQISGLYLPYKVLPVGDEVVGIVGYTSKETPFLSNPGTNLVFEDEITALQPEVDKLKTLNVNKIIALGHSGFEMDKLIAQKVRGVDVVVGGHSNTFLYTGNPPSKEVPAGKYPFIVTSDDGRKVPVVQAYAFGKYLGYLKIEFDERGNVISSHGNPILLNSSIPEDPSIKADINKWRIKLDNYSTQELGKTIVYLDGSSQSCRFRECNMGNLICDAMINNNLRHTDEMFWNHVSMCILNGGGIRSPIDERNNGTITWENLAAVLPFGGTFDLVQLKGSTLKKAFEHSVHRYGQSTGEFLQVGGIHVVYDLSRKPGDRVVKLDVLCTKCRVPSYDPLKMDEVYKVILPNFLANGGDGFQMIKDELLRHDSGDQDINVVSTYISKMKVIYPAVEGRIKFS
The experiment is described as follows: flow cytometry on CHO-S cells transiently expressing human CD73, AF647 anti-human IgG (H+L) secondary, GeoMean. Here is the method:
The anti-CD73 antibodies were incubated with the hamster CHO-S cell line transiently expressing human or cynomolgus CD73 for 30 minutes at 4° C. The cells were washed twice and subsequently incubated for an additional 20 minutes with AF647-conjugated secondary anti-human IgG (H+L) antibody. After the washing step, antibody binding was detected using the high-throughput flow cytometer iQue Screener PLUS (Sartorius) measuring the GeoMean of AF647 signal in each well. Every concentration was assayed in triplicate and a 12-point titration curve was generated for each antibody.

The Kd is the constant that tells how readily two partners part at equilibrium. Broadly, the EC50 (read off the curve) is the concentration at which the effect is half-maximal.

B1: antibody 21127 (antibody, human IgG1, kappa, L234A L235A, V domains shown)
VH: EVQLVESGGGLVQPGRSLRLSCAASGFTFDDFAMHWVRQAPGKGLEWVSGISWNSGNIGYADSVKGRFTISRDNAKNSLYLQMNSLRAEDTALYYCAKDKSGSPYYYYGMDVWGQGTMVTVSS
VL: DIQMTQSPSSVSASVGDRVTITCRATQGISRRLAWYQQKPGKAPKLLIYAASSLQSGVPSRFSGSGSGTDFTLTISSLQPEDFATYYCQQANSFPLTFGGGTKVEIKR
notes: Fully human IgG1-LALA (L234A/L235A), kappa
B1: the Kd in experiment [1] was determined as 240 pM. In addition, the “EC50 (read off the curve)” value in experiment [2] was around 5 ng/mL.
